One may read the Kd as the constant that tells how readily two partners part at equilibrium.

For this data set, the target named is T1, SsoSSB1-114 (Sulfolobus solfataricus, UniProt Q97W73 1-114).
T1 sequence: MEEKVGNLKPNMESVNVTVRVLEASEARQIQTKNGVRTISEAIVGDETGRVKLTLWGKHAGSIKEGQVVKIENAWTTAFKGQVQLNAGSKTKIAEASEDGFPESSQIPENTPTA
The data set is described as follows: ITC; 25 C; n = 1.009; Buffer A: 100 mM NaCl, 20 mM MES pH 6.5; ITC at 25 C (500 uM dA15 into 50 uM protein); NMR with 10% D2O at 25 and 50 C (SsoSSB12-114 at 25 C only). Particulars: protein: recombinant; tags: C-terminal TEV-His6 vector; single strand.

As to AAAAAAAAAAAAAAA (ssDNA) [dA(15)], the Kd worked out at 1.75 µM.

The values above are taken from paper PMC8954794, “NMR Structure and Biophysical Characterization of Thermophilic Single-Stranded DNA Binding Protein from Sulfolobus Solfataricus”.
